Measurements taken from PMC11417362, “Template-independent synthesis and 3′-end labelling of 2′-modified oligonucleotides with terminal deoxynucleotidyl transferases” (Nucleic Acids Research, 2024).

Assays:
purified protein = substrate: Nc1ncnc2c1ncn2[C@H]1C[C@H](O)[C@@H](COP(=O)(O)OP(=O)(O)OP(=O)(O)O)O1; assay: purified protein; settings: 100 nM ssDNA primer FAM-18G, 10 mM Mg(OAc)2, 1x TdT buffer (100 mM KCl, 30 mM Tris-acetate, 0.05% Triton X-100), pH 7.5, 37°C
[1] = substrate: Nc1ccn([C@@H]2O[C@H](COP(=O)(O)OP(=O)(O)OP(=O)(O)O)[C@@H](O)[C@@H]2F)c(=O)n1; assay: steady-state primer extension, denaturing PAGE, Michaelis-Menten fit; format: biochemical, Bos taurus; settings: 100 nM ssDNA primer FAM-18G, 10 mM Mg(OAc)2, 1x TdT buffer (100 mM KCl, 30 mM Tris-acetate, 0.05% Triton X-100), pH 7.5, 37°C
From the text: (§1) steady-state primer extension, denaturing PAGE, Michaelis-Menten fit on bovine TdT

[2] = substrate: Nc1ccn([C@H]2C[C@H](O)[C@@H](COP(=O)(O)OP(=O)(O)OP(=O)(O)O)O2)c(=O)n1; assay: as above; format: biochemical, Bos taurus; settings: 100 nM ssDNA primer FAM-18G, 10 mM Mg(OAc)2, 1x TdT buffer (100 mM KCl, 30 mM Tris-acetate, 0.05% Triton X-100), pH 7.5, 37°C
From the text: as §1

[3] = substrate: Nc1nc2c(ncn2[C@@H]2O[C@H](COP(=O)(O)OP(=O)(O)OP(=O)(O)O)[C@@H](O)[C@@H]2F)c(=O)[nH]1; assay: as above; format: biochemical, Bos taurus; settings: 100 nM ssDNA primer FAM-18G, 10 mM Mg(OAc)2, 1x TdT buffer (100 mM KCl, 30 mM Tris-acetate, 0.05% Triton X-100), pH 7.5, 37°C
From the text: as §1

[4] = substrate: Nc1nc2c(ncn2[C@@H]2O[C@H](COP(=O)(O)OP(=O)(O)OP(=O)(O)O)[C@@H](O)[C@H]2F)c(=O)[nH]1; assay: as above; format: biochemical, Bos taurus; settings: 100 nM ssDNA primer FAM-18G, 10 mM Mg(OAc)2, 1x TdT buffer (100 mM KCl, 30 mM Tris-acetate, 0.05% Triton X-100), pH 7.5, 37°C
From the text: as §1

[5] = substrate: Nc1ncnc2c1ncn2[C@@H]1O[C@H](COP(=O)(O)OP(=O)(O)OP(=O)(O)O)[C@@H](O)[C@@H]1F; assay: as above; format: biochemical, Bos taurus; settings: 100 nM ssDNA primer FAM-18G, 10 mM Mg(OAc)2, 1x TdT buffer (100 mM KCl, 30 mM Tris-acetate, 0.05% Triton X-100), pH 7.5, 37°C
From the text: as §1

[6] = substrate: Nc1ncnc2c1ncn2[C@@H]1O[C@H](COP(=O)(O)OP(=O)(O)OP(=O)(O)O)[C@@H](O)[C@H]1F; assay: as above; format: biochemical, Bos taurus; settings: 100 nM ssDNA primer FAM-18G, 10 mM Mg(OAc)2, 1x TdT buffer (100 mM KCl, 30 mM Tris-acetate, 0.05% Triton X-100), pH 7.5, 37°C
From the text: as §1

[7] = substrate: O=c1ccn([C@@H]2O[C@H](COP(=O)(O)OP(=O)(O)OP(=O)(O)O)[C@@H](O)[C@@H]2F)c(=O)[nH]1; assay: as above; format: biochemical, Bos taurus; settings: 100 nM ssDNA primer FAM-18G, 10 mM Mg(OAc)2, 1x TdT buffer (100 mM KCl, 30 mM Tris-acetate, 0.05% Triton X-100), pH 7.5, 37°C
From the text: as §1

[8] = substrate: CO[C@@H]1[C@H](O)[C@@H](COP(=O)(O)OP(=O)(O)OP(=O)(O)O)O[C@H]1n1ccc(N)nc1=O; assay: purified protein, by the assay type; design: Steady-state single-nucleotide incorporation into primer FAM-18G, denaturing PAGE band quantification, Michaelis-Menten fit
Description: (§2) The steady-state kinetic experiments were performed as described previously with minor modifications ([61]). A 2× reaction solution was prepared by mixing 200 nM primer FAM-18G, 0–128 μM 2′-modified NTP and 20 mM Mg(OAc)2 in 2× TdT buffer. A 5 μl aliquot of pre-warmed 2× reaction solution was mixed with 5 μl of bovine TdT, MTdT-evo or murine TdT of varying concentration, and incubated at 37°C for a certain time. The reaction was then quenched by the addition of 10 μl of 2× TBE-urea sample buffer and incubation at 95°C for 10 min. The products were analysed with 20% denaturing PAGE gels containing 8 M urea. All gel bands were quantified using Quantity One analysis software (Bio-Rad). Km and kcat values were calculated by fitting the data to the Michaelis–Menten equation with GraphPad Prism 8 software. To quantify the activities of different TdTs for the incorporation of 2′-modified NTPs, steady-state kinetic experiments were carried out.

[9] = substrate: CO[C@@H]1[C@H](O)[C@@H](COP(=O)(O)OP(=O)(O)OP(=O)(O)O)O[C@H]1n1cnc2c(=O)[nH]c(N)nc21; assay: purified protein, by the assay type; design: Steady-state single-nucleotide incorporation into primer FAM-18G, denaturing PAGE band quantification, Michaelis-Menten fit
Description: as §2

[10] = substrate: Cc1cn([C@H]2C[C@H](O)[C@@H](COP(=O)(O)OP(=O)(O)OP(=O)(O)O)O2)c(=O)[nH]c1=O; assay: purified protein, by the assay type; design: Steady-state single-nucleotide incorporation into primer FAM-18G, denaturing PAGE band quantification, Michaelis-Menten fit
Description: as §2

[11] = substrate: O=c1ccn([C@@H]2O[C@H](COP(=O)(O)OP(=O)(O)OP(=O)(O)O)[C@@H](O)[C@H]2F)c(=O)[nH]1; assay: purified protein, by the assay type; design: Steady-state single-nucleotide incorporation into primer FAM-18G, denaturing PAGE band quantification, Michaelis-Menten fit
Description: as §2

B1: bovine TdT (Bos taurus) (protein)
chain: MDPLCTASSGPRKKRPRQVGASMASPPHDIKFQNLVLFILEKKMGTTRRNFLMELARRKGFRVENELSDSVTHIVAENNSGSEVLEWLQVQNIRASSQLELLDVSWLIESMGAGKPVEITGKHQLVVRTDYSATPNPGFQKTPPLAVKKISQYACQRKTTLNNYNHIFTDAFEILAENSEFKENEVSYVTFMRAASVLKSLPFTIISMKDTEGIPCLGDKVKCIIEEIIEDGESSEVKAVLNDERYQSFKLFTSVFGVGLKTSEKWFRMGFRSLSKIMSDKTLKFTKMQKAGFLYYEDLVSCVTRAEAEAVGVLVKEAVWAFLPDAFVTMTGGFRRGKKIGHDVDFLITSPGSAEDEEQLLPKVINLWEKKGLLLYYDLVESTFEKFKLPSRQVDTLDHFQKCFLILKLHHQRVDSSKSNQQEGKTWKAIRVDLVMCPYENRAFALLGWTGSRQFERDIRRYATHERKMMLDNHALYDKTKRVFLKAESEEEIFAHLGLDYIEPWERNA
notes: recombinant, plasmid pET30a-bovine TdT, E. coli BL21(DE3)
Purified protein
  Km: 2.65 ± 0.76 µM
  kcat: 0.00517 s⁻¹
  kcat/Km: 1950 M⁻¹ s⁻¹
[1]
  Km: 2.83 ± 0.69 µM
  kcat: 0.0285 ± 0.00317 s⁻¹
  kcat/Km: 10100 M⁻¹ s⁻¹
[2]
  Km: 3.14 ± 0.46 µM
  kcat: 0.02 ± 0.001 s⁻¹
  kcat/Km: 6370 M⁻¹ s⁻¹
[3]
  Km: 2.91 ± 0.52 µM
  kcat: 0.0638 ± 0.00417 s⁻¹
  kcat/Km: 22000 M⁻¹ s⁻¹
[4]
  Km: 4.03 ± 0.52 µM
  kcat: 0.0182 ± 0.000483 s⁻¹
  kcat/Km: 4500 M⁻¹ s⁻¹
[5]
  Km: 2.23 ± 0.32 µM
  kcat: 0.0443 ± 0.00717 s⁻¹
  kcat/Km: 19800 M⁻¹ s⁻¹
[6]
  Km: 0.97 ± 0.27 µM
  kcat: 0.00933 ± 0.0011 s⁻¹
  kcat/Km: 9620 M⁻¹ s⁻¹
[7]
  Km: 2.63 ± 0.77 µM
  kcat: 0.0148 ± 0.00065 s⁻¹
  kcat/Km: 5630 M⁻¹ s⁻¹
[8]
  Km: 5.87 ± 0.76 µM
  kcat: 0.0004 ± 5.83e-05 s⁻¹
  kcat/Km: 68.2 M⁻¹ s⁻¹
[9]
  Km: 6.10 ± 1.50 µM
  kcat: 0.000683 ± 2.17e-05 s⁻¹
  kcat/Km: 112 M⁻¹ s⁻¹
[10]
  Km: 4.19 ± 0.91 µM
  kcat: 0.0075 ± 0.000833 s⁻¹
  kcat/Km: 1780 M⁻¹ s⁻¹
[11]
  Km: 5.33 ± 1.58 µM
  kcat: 0.00267 ± 0.000112 s⁻¹
  kcat/Km: 500 M⁻¹ s⁻¹
